Measurements as given in article PMC5482835.

Experiments:
[1] = target: caveolin-1 (Chinese hamster (endogenous in CHO-K1)); assay: cross-linking; intact CHO-K1 cells, 0.5 mM membrane-permeable DSP, room temperature, 45 min, quenched with 50 mM glycine; SDS-PAGE and Western blot; cross-link reversed by beta-mercaptoethanol
[2] = target: full-length human Neu3 tagged at the C-terminus with a c-Myc epitope (human); assay: non-reducing SDS-PAGE with Western blot; total homogenates of NEU3-transfected CHO-K1 cells separated by SDS-PAGE with or without 5% beta-mercaptoethanol; blotted with anti-Neu3 antibody
[3] = target: GPI-YFP, a fusion protein containing the total sequence of YFP fused to a glycosylphosphatidylinositol (GPI)-membrane attachment signal; assay: cross-linking; intact CHO-K1 cells, 2 mM membrane-impermeable BS3, 4 °C, 45 min, quenched with 50 mM glycine; SDS-PAGE and Western blot

Q: caveolin-1 (natural protein) was tested. Which stoichiometry N [1] did it give?
A: 2

Q: Which percent of the total enzyme in the ~125 kDa band [2] does the source give for “full-length human Neu3 tagged at the C-terminus with a c-Myc epitope (enzyme)” here?
A: 25%

Q: And the stoichiometry N [2]?
A: 2

Q: “GPI-YFP, a fusion protein containing the total sequence of YFP fused to a glycosylphosphatidylinositol (GPI)-membrane attachment signal” was tested. Which stoichiometry N [3] did it give?
A: 2
